Results reported in paper PMC3617561 (Biochemistry, 2012).
Positions count from the first letter of the chain named.

Columns and labels:
USP1(S313A) = target: T1, USP1(S313A) (human, UniProt O94782 1-785, G670A | G671A | S313A); test: cell-based or functional assay
T1 sequence (looked up): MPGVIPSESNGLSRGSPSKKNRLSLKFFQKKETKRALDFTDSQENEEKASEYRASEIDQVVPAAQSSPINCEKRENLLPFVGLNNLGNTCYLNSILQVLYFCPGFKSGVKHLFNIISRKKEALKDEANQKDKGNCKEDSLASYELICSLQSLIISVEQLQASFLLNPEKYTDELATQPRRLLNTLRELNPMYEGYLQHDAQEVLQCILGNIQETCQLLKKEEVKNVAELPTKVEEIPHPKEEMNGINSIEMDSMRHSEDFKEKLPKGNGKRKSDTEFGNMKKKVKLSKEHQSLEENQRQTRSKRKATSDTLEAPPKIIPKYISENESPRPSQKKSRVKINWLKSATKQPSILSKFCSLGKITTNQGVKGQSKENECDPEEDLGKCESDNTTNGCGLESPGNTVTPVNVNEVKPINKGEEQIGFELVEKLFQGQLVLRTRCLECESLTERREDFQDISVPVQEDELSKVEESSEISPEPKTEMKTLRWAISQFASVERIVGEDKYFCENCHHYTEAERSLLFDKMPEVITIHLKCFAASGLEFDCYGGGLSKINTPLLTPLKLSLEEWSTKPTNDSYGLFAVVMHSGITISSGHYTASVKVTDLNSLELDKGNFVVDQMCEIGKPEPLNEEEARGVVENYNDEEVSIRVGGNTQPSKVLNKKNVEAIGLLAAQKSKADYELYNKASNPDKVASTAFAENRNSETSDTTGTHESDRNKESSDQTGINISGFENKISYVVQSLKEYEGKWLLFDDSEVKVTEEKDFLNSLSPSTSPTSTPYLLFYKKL

USP1(S313D) = target: T2, USP1(S313D) (human, UniProt O94782 1-785, G670A | G671A | S313D); test: cell-based or functional assay
T2 sequence (looked up): T1 sequence (looked up) with A313D

B1: UAF1 (USP1-associated factor 1), six-His-tagged, N-terminally HA-tagged (natural protein)
chain: not shown
Question: Which results are given for B1?
Answer: kcat/Km of USP1(S313A) purified together with His-tagged UAF1, on Ub-AMC (USP1(S313A)): 1100 M⁻¹ s⁻¹; kcat/Km of the copurified USP1(S313D)/UAF1 complex on Ub-AMC (USP1(S313D)): 250000 M⁻¹ s⁻¹
